Where a chain is given by its changes, count along the chain named.
T1: human PAC1 receptor (human, UniProt P41586 21-468)
T1 sequence: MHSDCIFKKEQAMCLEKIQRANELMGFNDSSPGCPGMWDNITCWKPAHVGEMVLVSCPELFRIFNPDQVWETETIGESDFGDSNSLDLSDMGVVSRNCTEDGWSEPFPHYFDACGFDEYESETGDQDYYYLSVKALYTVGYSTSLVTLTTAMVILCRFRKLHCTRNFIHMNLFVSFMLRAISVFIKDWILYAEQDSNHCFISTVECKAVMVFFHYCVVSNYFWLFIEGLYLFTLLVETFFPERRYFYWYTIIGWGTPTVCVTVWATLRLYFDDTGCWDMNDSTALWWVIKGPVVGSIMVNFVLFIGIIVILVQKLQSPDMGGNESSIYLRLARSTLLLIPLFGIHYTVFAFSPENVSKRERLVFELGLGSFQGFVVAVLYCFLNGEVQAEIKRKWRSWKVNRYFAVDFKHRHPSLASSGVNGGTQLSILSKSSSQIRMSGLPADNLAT

B1: iPS:327707 (bispecific antibody, human IgG1, kappa, lambda, N297G)
light 1: DIQMTQSPSSLSASVGDRITITCRASQSISRYLNWYQQKPGKAPKLLIYAASSLQSGIPSRFSGSGSGTDFTLTINSLQPEDFATYFCQQSYSPPFTFGEGTKVDIKRTVAAPSVFIFPPSDEQLKSGTASVVCLLNNFYPREAKVQWKVDNALQSGNSQESVTEQDSKDSTYSLESTLTLSKADYEKHKVYACEVTHQGLSSPVTKSFNRGEC
heavy 1: not shown
light 2: QSVLTQPPSVSAAPGQKVTISCSGSSSNIGNNYVSWYQQLPGTAPKLLIYDNNKRPSGIPDRFSGSKSGTSATLGITGLQTGDEADYYCGTWDSRLSAVVFGKGTKLTVLGQPKANPTVTLFPPSSEELQANKATLVCLISDFYPGAVTVAWKADGSPVKAGVETTKPSKQSNNKYAAKSYLSLTPEQWKSHRSYSCQVTHEGSTVEKTVAPTECS
heavy 2: QVQLVESGGGVVQPGRSLRLSCAASGFTFSSFGMHWVRQAPGKELEWVAVISFDGSIKYSVDSVKGRFTISRDNSKNTLFLQMNSLRAEDTAVYYCARDRLNYYDSSGYYHYKYYGMAVWGQGTTVTVSSASTKGPSVFPLAPSSKSTSGGTAALGCLVKDYFPEPVTVSWNSGALTSGVHTFPAVLQSSGLYSLESVVTVPSSSLGTQTYICNVNHKPSNTKVDKKVEPKSCDKTHTCPPCPAPELLGGPSVFLFPPKPKDTLMISRTPEVTCVVVDVSHEDPEVKFNWYVDGVEVHNAKTKPCEEQYGSTYRCVSVLTVLHQDWLNGKEYKCKVSNKALPAPIEKTISKAKGQPREPQVYTLPPSRKEMTKNQVSLTCLVKGFYPSDIAVEWESNGQPENNYKTTPPVLKSDGSFFLYSKLTVDKSRWQQGNVFSCSVMHEALHNHYTQKSLSLSPGK
B2: iPS:327698 (bispecific antibody, human IgG1, kappa, lambda, N297G)
light 1: EIVLTQSPATLSLSPGERATLSCRASQSVGRSLHWYQQKPGQAPRLLIKYASQSLSGIPARFSGSGSGTDFTLTISSLEPEDFAVYYCHQSSRLPFTFGEGTKVDIKRTVAAPSVFIFPPSDEQLKSGTASVVCLLNNFYPREAKVQWKVDNALQSGNSQESVTEQDSKDSTYSLESTLTLSKADYEKHKVYACEVTHQGLSSPVTKSFNRGEC
heavy 1: not shown
light 2: B1 light 2 with A72T
heavy 2: B1 heavy 2 with D105E
B3: iPS:327708 (bispecific antibody, human IgG1, kappa, lambda, N297G)
light 1: not shown
heavy 1: not shown
light 2: B1 light 2
heavy 2: B1 heavy 2
B4: iPS:327699 (bispecific antibody, human IgG1, kappa, lambda, N297G)
light 1: not shown
heavy 1: not shown
light 2: B1 light 2 with A72T, K103G
heavy 2: B1 heavy 2 with E44G, D105E, E370K
B5: iPS:327709 (bispecific antibody, human IgG1, kappa, lambda, N297G)
light 1: DIQLTQSPSFLSASVGDRVTITCRASQSIGRSLHWYQQKPGKAPKLLIKYASQSLSGVPSRFSGSGSGTEFTLTISSLQPEDFATYYCHQSSRLPFTFGEGTKVDIKRTVAAPSVFIFPPSDEQLKSGTASVVCLLNNFYPREAKVQWKVDNALQSGNSQESVTEQDSKDSTYSLESTLTLSKADYEKHKVYACEVTHQGLSSPVTKSFNRGEC
heavy 1: not shown
light 2: B1 light 2
heavy 2: B1 heavy 2
B6: iPS:327700 (bispecific antibody, human IgG1, kappa, lambda, N297G)
light 1: not shown
heavy 1: not shown
light 2: B1 light 2 with A72T, K103G
heavy 2: B1 heavy 2 with E44G, D105E, E370K
B7: iPS:327710 (bispecific antibody, human IgG1, kappa, lambda, N297G)
light 1: B2 light 1
heavy 1: not shown
light 2: B1 light 2
heavy 2: B1 heavy 2
B8: iPS:327701 (bispecific antibody, human IgG1, kappa, lambda, N297G)
light 1: B5 light 1 with E100P
heavy 1: not shown
light 2: B1 light 2 with A72T, K103G
heavy 2: B1 heavy 2 with E44G, D105E, E370K
B9: iPS:327711 (bispecific antibody, human IgG1, kappa, lambda, N297G)
light 1: not shown
heavy 1: not shown
light 2: B1 light 2 with K103G
heavy 2: B1 heavy 2 with E44G, E370K
B10: iPS:327702 (bispecific antibody, human IgG1, kappa, lambda, N297G)
light 1: B2 light 1 with E100P
heavy 1: not shown
light 2: B1 light 2 with A72T, K103G
heavy 2: B1 heavy 2 with E44G, D105E, E370K
B11: iPS:326661 (bispecific antibody, human IgG2, kappa)
light 1: not shown
heavy 1: QVQLQQSGPGLVKPSQTLSLTCAISGDSVSSNSATWNWIRQSPSRGLEWLGRTYYRSKWSNHYAVSVKSRITINPDTSKSQFSLQLNSVTPEDTAVYYCARGTWKQLWFLDHWGQGTLVTVSSASTKGPSVFPLAPCSRSTSESTAALGCLVKDYFPEPVTVSWNSGALTSGVHTFPAVLQSSGLYSLKSVVTVPSSNFGTQTYTCNVDHKPSNTKVDKTVERKCCVECPPCPAPPVAGPSVFLFPPKPKDTLMISRTPEVTCVVVDVSHEDPEVQFNWYVDGVEVHNAKTKPREEQFNSTFRVVSVLTVVHQDWLNGKEYKCKVSNKGLPAPIEKTISKTKGQPREPQVYTLPPSREEMTKNQVSLTCLVDGFYPSDIAVEWESNGQPENNYDTTPPMLDSDGSFFLYSDLTVDKSRWQQGNVFSCSVMHEALHNHYTQKSLSLSPGK
light 2: EIVLTQSPGTLSLSPGERATLSCRASQSVSSGYLTWYQQKPGQAPRLLIYGASSRATGIPDRFSGSGSGTDFTLTISRLEPEDFAVYYCQQYGNSLSRFGQGTKLEIKRTVAAPSVFIFPPSDEQLKSGTASVVCLLNNFYPREAKVQWKVDNALQSGNSQESVTEQDSKDSTYSLKSTLTLSKADYEKHKVYACEVTHQGLSSPVTKSFNRGEC
heavy 2: QVQLVESGGGVVQPGRSLRLSCAASGFTFSSYGMHWVRQAPGKGLEWVAVIWYDGSNKYYADSVKGRFIISRDKSKNTLYLQMNSLRAEDTAVYYCARAGGIAAAGLYYYYGMDVWGQGTTVTVSSASTKGPSVFPLAPCSRSTSESTAALGCLVKDYFPEPVTVSWNSGALTSGVHTFPAVLQSSGLYSLESVVTVPSSNFGTQTYTCNVDHKPSNTKVDKTVERKCCVECPPCPAPPVAGPSVFLFPPKPKDTLMISRTPEVTCVVVDVSHEDPEVQFNWYVDGVEVHNAKTKPREEQFNSTFRVVSVLTVVHQDWLNGKEYKCKVSNKGLPAPIEKTISKTKGQPREPQVYTLPPSRKKMTKNQVSLTCLVKGFYPSDIAVEWESNGQPENNYKTTPPMLKSDGSFFLYSKLTVDKSRWQQGNVFSCSVMHEALHNHYTQKSLSLSPGK
B12: iPS:327712 (bispecific antibody, human IgG1, kappa, lambda, N297G)
light 1: not shown
heavy 1: not shown
light 2: B1 light 2 with K103G
heavy 2: B1 heavy 2 with E44G, E370K
B13: iPS:327703 (bispecific antibody, human IgG1, kappa, lambda, N297G)
light 1: not shown
heavy 1: not shown
light 2: B1 light 2 with K103G
heavy 2: B1 heavy 2 with E44G
B14: iPS:327713 (bispecific antibody, human IgG1, kappa, lambda, N297G)
light 1: B5 light 1 with E100P
heavy 1: not shown
light 2: B1 light 2 with K103G
heavy 2: B1 heavy 2 with E44G, E370K
B15: iPS:327704 (bispecific antibody, human IgG1, kappa, lambda, N297G)
light 1: not shown
heavy 1: not shown
light 2: B1 light 2 with K103G
heavy 2: B1 heavy 2 with E44G

target: human CGRP receptor (human, UniProt Q16602 23-461; O60894 27-148); experiment: cell-based or functional assay
Sequence (Q16602 23-461 limits assumed, chain 1 of 2): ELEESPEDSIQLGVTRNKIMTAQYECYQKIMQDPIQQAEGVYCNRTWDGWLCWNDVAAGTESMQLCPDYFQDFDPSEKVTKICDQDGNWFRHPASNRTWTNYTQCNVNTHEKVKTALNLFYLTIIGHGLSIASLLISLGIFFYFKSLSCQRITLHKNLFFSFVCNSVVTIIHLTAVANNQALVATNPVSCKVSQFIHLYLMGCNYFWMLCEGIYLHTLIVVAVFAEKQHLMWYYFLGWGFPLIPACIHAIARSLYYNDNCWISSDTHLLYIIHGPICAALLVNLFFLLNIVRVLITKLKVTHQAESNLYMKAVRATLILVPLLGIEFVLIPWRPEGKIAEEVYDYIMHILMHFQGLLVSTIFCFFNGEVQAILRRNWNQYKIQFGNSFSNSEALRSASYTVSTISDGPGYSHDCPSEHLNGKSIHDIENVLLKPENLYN
Sequence (O60894 27-148 limits assumed, chain 2 of 2): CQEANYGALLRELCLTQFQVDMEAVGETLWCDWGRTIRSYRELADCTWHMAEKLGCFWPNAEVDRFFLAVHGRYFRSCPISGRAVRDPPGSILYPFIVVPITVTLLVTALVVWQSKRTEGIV

Binder | % inhibition of human CGRPR [%]
B1 | 73
B2 | 90
B3 | 79
B4 | 72
B5 | 82
B6 | 77
B7 | 82
B8 | 73
B9 | 87
B10 | 79
B11 | 77
B12 | 89
B13 | 83
B14 | 89
B15 | 82

target: T1, human PAC1 receptor; experiment: cell-based or functional assay

Binder | % inhibition of human PAC1 [%]
B1 | 72
B2 | 96
B3 | 18
B4 | 92
B5 | 29
B6 | 72
B7 | 61
B8 | 41
B9 | 97
B10 | 86
B11 | 72
B12 | 81
B13 | 87
B14 | 85
B15 | 71

From US20170306033A1 (Amgen, published 2017)
